Data published in PMC314469, “Protein Interaction Networks by Proteome Peptide Scanning” (PLoS Biology, 2004).

T1: Abp1 SH3 (ABP1_YEAST), P15891
T1 chain: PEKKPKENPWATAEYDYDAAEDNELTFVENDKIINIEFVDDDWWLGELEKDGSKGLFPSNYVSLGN


Biological target: T1, Abp1 SH3 (ABP1_YEAST), P15891
Assay: SPOT array

Binder	normalised SPOT signal, Boehringer light units (BLU); mean over the file's lines of this peptide
ISLDSPIPENIKP [YNL102W 567-579]	95.3
ISMIPRYPVTSRP [YDL056W 329-341]	2470
ISNLGGKSIDPHKP [YNL212W 461-474]	91.3
ISPVIIPLGNPKRP [YGR177C 149-162]	90.9
ISRWVNFPWDAKP [YIL085C 295-307]	172
ITELISGYMLPLRP [YJL212C 542-555]	149
ITKILRIIGFPSRP [YNL247W 569-582]	43.2
ITSYAVSPYAQKP [YJL166W 24-36]	90.7
IVFKNVSFTYPTRP [YLR188W 432-445]	87
IYDVIEVVPEPGKP [YDR301W 1056-1069]	80.4
IYLTKLFMEWPFKP [YMR228W 312-325]	118
KAEMKAGTTAPPKP [YLR234W 517-530]	211
KAGGPRAPQGPRP [YJL008C 549-561]	209
KARHVLYPKGVKP [YDR463W 278-290]	174
KSEPELYPNGIKP [YBR058C 403-415]	13.7
KDDKAMEPPNEKP [YDL193W 7-19]	118
KDIPVKSDDTPAKP [YGL009C 527-540]	75.1
KDPANISMILPSKP [YBR260C 525-538]	112
KDPKSFPPPPLKP [YBR108W 81-93]	1320
KDSPSFLPGQQRP [YNL167C 92-104]	71.8

Binder	normalised SPOT signal, Boehringer light units (BLU); mean over the file's lines of this peptide
KDVQPFIPKSLRP [YGR175C 289-301]	2320
KEKKVTFDIEPYKP [YBR143C 103-116]	63.6
KELKWADPRSFKP [YOR168W 156-168]	378
KELSRLTYYGPEKP [YLR305C 1008-1021]	116
KETVTKQPTEEKP [YNL110C 11-23]	94.1
KEYTRFNQIFPKKP [YDR182W 159-172]	54
KFMSAIKPANQKP [YAL024C 394-406]	2680
KFSSDNDPLQYRP [YBR033W 108-120]	71.3
KGFRFNLPPTDRP [YGR202C 91-103]	166
KGIIMDAKFHPFKP [YMR049C 639-652]	898
KGMENELPFMKRP [YIL077C 15-27]	332
KGPDVEFLMIPFRP [YOR188W 88-101]	114
KGVRNIMIPFPNRP [YOR093C 1313-1326]	273
KHAAKIDLVEPVKP [YBR261C 84-97]	121
KHKQHKPKVKPSKP [YHL007C 233-246]	13.3
KHSTDEKPNFTKP [YLR087C 2329-2341]	125
KIEGSIPENEPSKP [YHR102W 306-319]	97.5
KIGLIQFQISPPKP [YDL143W 233-246]	40.5
KILDLKFPPKERP [YKL211C 326-338]	257
KIQELYLPHMSRP [YMR131C 92-104]	166

Binder	normalised SPOT signal, Boehringer light units (BLU); mean over the file's lines of this peptide
KKEYSETFYHPYKP [YPL008W 3-16]	109
KKHNSWVPKWLKP [YFL034W 914-926]	194
KKIEAKKATRPSKP [YNL173C 323-336]	80
KKIKKKSPTGMKP [YOL075C 641-653]	120
KKISFNPVVTPIRP [YFR023W 33-46]	0
KKKSSPATKVPSKP [YGL207W 456-469]	65
KKLLLKGYIPPYKP [YMR104C 605-618]	95.9
KKLSSSMPNSPKKP [YDL117W 113-126]	153
KKPASKAPAEKKP [YBL002W 7-19]	174
KKPKLNKRVLPSKP [YLR183C 347-360]	128
KKQTQLSSTAPKKP [YGR056W 686-699]	34.9
KKSRSTGFKNPLRP [YML061C 150-163]	184
KLDIISDPESERP [YGL004C 356-368]	107
KLGPISTSKSPKKP [YJL051W 233-246]	200
KLHFSSFPNDIRP [YER097W 23-35]	396
KLKELQTITVPGKP [YER124C 120-133]	131
KLKITRNPNPSKP [YHR208W 27-39]	245
KLQGSFNPEYIKP [YML072C 1243-1255]	108
